Experiment in all cases: cell-based or functional assay
Experiment [1] addresses human BCMA (B cell mature antigen, CD269, TNFRSF17) on cells (human) (UniProt Q02223).
Experiment [2] deals with T1, CD38 on K562.CD38.Luc cells (UniProt P28907 1-300, limits assumed).
T1 sequence (looked up): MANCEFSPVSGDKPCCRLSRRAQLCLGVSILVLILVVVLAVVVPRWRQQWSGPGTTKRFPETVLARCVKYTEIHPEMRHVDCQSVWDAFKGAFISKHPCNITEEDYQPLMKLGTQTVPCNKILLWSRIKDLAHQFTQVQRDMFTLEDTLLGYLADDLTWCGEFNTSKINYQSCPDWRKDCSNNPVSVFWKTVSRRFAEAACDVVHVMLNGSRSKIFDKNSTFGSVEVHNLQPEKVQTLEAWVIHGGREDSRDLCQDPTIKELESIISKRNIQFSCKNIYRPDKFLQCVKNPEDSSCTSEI

The target of experiment [3] is T2, human BCMA (B cell mature antigen, CD269, TNFRSF17) on cells (human, UniProt Q02223 1-184).
T2 sequence: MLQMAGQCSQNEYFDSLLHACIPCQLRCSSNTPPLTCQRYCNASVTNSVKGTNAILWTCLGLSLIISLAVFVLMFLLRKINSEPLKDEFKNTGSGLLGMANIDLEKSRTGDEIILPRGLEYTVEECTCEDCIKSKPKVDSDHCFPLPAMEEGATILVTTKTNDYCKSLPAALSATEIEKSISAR

In experiment [1], LCAR-B27S CAR yielded a percentage of remaining viable RPMI8226.Luc cells (remaining luciferase activity), CAR-T from patient A, E/T 5:1, 20 hours of 68.6%; a percentage of remaining viable RPMI8226.Luc cells (remaining luciferase activity), CAR-T from patient A, E/T 20:1, 20 hours of 3.17%; a percentage of remaining viable RPMI8226.Luc cells (remaining luciferase activity), CAR-T from patient B, E/T 5:1, 20 hours of 84%; a percentage of remaining viable RPMI8226.Luc cells (remaining luciferase activity), CAR-T from patient B, E/T 20:1, 20 hours of 9.32%. Also, in experiment [1], the percentage of remaining viable RPMI8226.Luc cells (remaining luciferase activity), CAR-T from patient C, E/T 5:1, 20 hours amounted to 101% and the percentage of remaining viable RPMI8226.Luc cells (remaining luciferase activity), CAR-T from patient C, E/T 20:1, 20 hours came to 10.1%.
In experiment [1], LCAR-B38M CAR returned a percentage of remaining viable RPMI8226.Luc cells (remaining luciferase activity), CAR-T from patient A, E/T 5:1, 20 hours of 33.4%; a percentage of remaining viable RPMI8226.Luc cells (remaining luciferase activity), CAR-T from patient A, E/T 20:1, 20 hours of 3.97%; a percentage of remaining viable RPMI8226.Luc cells (remaining luciferase activity), CAR-T from patient B, E/T 5:1, 20 hours of 40.9%; a percentage of remaining viable RPMI8226.Luc cells (remaining luciferase activity), CAR-T from patient B, E/T 20:1, 20 hours of 4.45%. In experiment [1], the percentage of remaining viable RPMI8226.Luc cells (remaining luciferase activity), CAR-T from patient C, E/T 5:1, 20 hours amounted to 30% and the percentage of remaining viable RPMI8226.Luc cells (remaining luciferase activity), CAR-T from patient C, E/T 20:1, 20 hours turned out to be 2.56%.

B1: BCAR001 (other)
chain: QVKLEESGGGLVQAGRSLRLSCAASEHTFSSHVMGWFRQAPGKERESVAVIGWRDISTSYADSVKGRFTISRDNAKKTLYLQMNSLKPEDTAVYYCAARRIDAADFDSWGQGTQVTVSSGGGGSAVQLVESGGGLVQAGDSLRLTCTASGRAFSTYFMAWFRQAPGKEREFVAGIAWSGGSTAYADSVKGRFTISRDNAKNTVYLQMNSLKSEDTAVYYCASRGIEVEEFGAWGQGTQVTVSSTSTTTPAPRPPTPAPTIASQPLSLRPEACRPAAGGAVHTRGLDFACDIYIWAPLAGTCGVLLLSLVITLYCKRGRKKLLYIFKQPFMRPVQTTQEEDGCSCRFPEEEEGGCELRVKFSRSADAPAYQQGQNQLYNELNLGRREEYDVLDKRRGRDPEMGGKPRRKNPQEGLYNELQKDKMAEAYSEIGMKGERRRGKGHDGLYQGLSTATKDTYDALHMQALPPR
Take B1: in experiment [2], the “IFN gamma release in co-culture with K562.CD38.Luc (BCMA negative control; UnT 85.65 pg/ml), mean” value turned out to be 136 pg/mL. In addition, in experiment [3], the “IFN gamma release in co-culture with RPMI8226.Luc, mean” value amounted to 1100 pg/mL and the “IFN gamma release in co-culture with Raji.Luc, mean” value worked out at 796 pg/mL.
